From patent US11058644 (WISCONSIN ALUMNI RESEARCH FOUNDATION, dated 2021)

Target: T1, epidermal growth factor receptor (EGFR) (UniProt P00533 25-1210, limits assumed)
T1 construct: whole, on cells; Endogenous receptor on MDA-MB-468 cells
Test: blocking of Cy5-NP uptake on MDA-MB-468 cells by 2 uM free GE11, fluorescence microscopy
Description: Cellular Uptake. The cellular uptake behaviors of the NPs in MDA-MB-468 TNBC cell lines were analyzed using a fluorescence microscope based on the Cy5 dye conjugated on the NPs. Cells were seeded (1×10^5 cells/ml) onto 8-well high-optical-quality plates and grown overnight. Cells were treated with either non-targeted NPs, targeted NPs, or targeted NPs with free GE11 peptide (2 µM; blocking assay) at an NP concentration of 100 µg/ml. After 2 h incubation, cells were washed with PBS twice, fixed with 4% PFA, and stained with DAPI for 4 h. Then the cells were mounted with Prolong Gold anti-fade reagent. The cellular uptake was observed using a fluorescence microscope (Nikon, Melville, N.Y.). Digital monochromatic images were acquired using NIS-Elements BR Software.
In Vitro Cellular Uptake. EGFR is overexpressed in many common types of cancer. Here, an EGFR targeting peptide, GE11, was used as an active-tumor-targeting ligand to enhance cellular uptake. MDA-MB-468, a TNBC cell line that overexpresses EGFR, was used as the model cell line. Cells were incubated with either non-targeted (i.e., NPs without GE11 conjugation) or targeted (i.e., GE11 conjugated) NPs for 2 h. Cells without any treatment were used as a negative control. Cy5 was conjugated onto the NPs. Fluorescence imaging analysis was performed to compare cellular uptake. […]

B1: GE11 peptide (YHWYGYTPQNVIGGGGC) (peptide)
peptide: YHWYGYTPQNVIGGGGC
notes: also called free GE11; EGFR targeting peptide
- binding result: binds
